Data reported in paper PMC9980635 (mAbs, 2023).

Key:
[1] = molecular target: cynoLAMP1 presented on the surface of engineered cell lines (Macaca fascicularis, UniProt A0A2K5UUW0); experiment: flow cytometry on cells
[2] = molecular target: human LAMP-1 extracellular domain (Homo sapiens, UniProt P11279); experiment: BLI
[3] = molecular target: cynomolgus LAMP-1 extracellular domain (Macaca fascicularis, UniProt A0A2K5UUW0); experiment: BLI
[4] = molecular target: murine LAMP-1 extracellular domain (Mus musculus, UniProt P11438); experiment: BLI
Chain of murine LAMP-1 extracellular domain (P11438 25-370): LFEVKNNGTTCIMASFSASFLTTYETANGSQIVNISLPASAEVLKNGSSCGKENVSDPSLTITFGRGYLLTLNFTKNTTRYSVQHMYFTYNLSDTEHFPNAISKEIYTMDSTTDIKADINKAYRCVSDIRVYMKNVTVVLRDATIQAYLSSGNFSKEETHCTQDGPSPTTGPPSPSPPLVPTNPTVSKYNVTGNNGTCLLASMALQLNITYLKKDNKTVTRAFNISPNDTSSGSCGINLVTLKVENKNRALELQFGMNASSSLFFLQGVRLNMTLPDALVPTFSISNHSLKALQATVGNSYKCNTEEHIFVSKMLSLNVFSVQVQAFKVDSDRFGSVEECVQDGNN

Chain of human LAMP-1 extracellular domain (P11279 29-382): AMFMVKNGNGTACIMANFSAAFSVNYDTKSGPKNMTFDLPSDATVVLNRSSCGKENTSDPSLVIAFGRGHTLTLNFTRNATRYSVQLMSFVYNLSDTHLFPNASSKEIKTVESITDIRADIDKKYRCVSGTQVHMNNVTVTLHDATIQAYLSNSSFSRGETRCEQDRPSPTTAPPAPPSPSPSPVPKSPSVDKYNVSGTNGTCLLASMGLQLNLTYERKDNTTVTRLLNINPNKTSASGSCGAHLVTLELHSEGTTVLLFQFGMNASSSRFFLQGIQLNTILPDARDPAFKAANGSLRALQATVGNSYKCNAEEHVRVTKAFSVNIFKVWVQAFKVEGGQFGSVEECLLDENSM

B1: mAb B (antibody, V domains shown)
VH: QVQLVQSGAEVKKPGSSVKVSCKASGYIFTNYNIHWVKKSPGQGLEWIGAIYPGNGDAPYSQKFQGKATLTADTSTSTTYMELSSLRSEDTAVYYCVRANWDVAFAYWGQGTLVTVSS
VL: DIQMTQSPSSLSASVGDRVTITCKASQDIDRYMAWYQDKPGKAPRLLIHDTSTLQSGVPSRFSGSGSGRDYTLTISNLEPEDFATYYCLQYDNLWTFGGGTKVEIK
[1]
  binding result: no binding
[2]
  Kd: 12 nM
[3]
  binding result: no binding (tested: 200 nM)
[4]
  binding result: no binding (tested: 200 nM)
